These results are taken from PMC2828450, “Crystal structure of the signaling helix coiled-coil domain of the β1 subunit of the soluble guanylyl cyclase” (BMC Structural Biology, 2010).

“And” between values parts separate entries of the source, which are not always exact repeats. Equal values may be shown once.

For data set [1], the target named is sGC beta1 H-NOXA domain H-NOXA (UniProt Q02153). Particulars: cited from earlier work.
For data set [2], the target named is sGC beta1 catalytic domain catalytic domain (UniProt Q02153). Particulars: cited from earlier work.
Data set [3] deals with the molecule itself. Nature of the data set: SEC; analytic gel filtration on a Superdex 75 column calibrated with Mw standards, before crystallization; major 38.5 kD and minor 19.5 kD species.

On to “sGC beta1 H-NOXA domain H-NOXA (from UniProt Q02153)”, for which the dissociation constant Kd in data set [1] was under 60 µM.
For “sGC beta1 catalytic domain catalytic domain (from UniProt Q02153)”, in data set [2], the Kd is 6 µM.

B1: Rattus norvegicus soluble guanylyl cyclase β1 subunit coiled-coil domain, residues 348-409, I371M (domain or fragment)
chain: GSHMATRDLVLLGEQFREEYKLTQELEMLTDRLQLTLRALEDEKKKTDTLLYSVLPPSVANELRHK
modifications: not fully specified (residues 4, 28); printed as gshmATRDLVLLGEQFREEYKLTQELE**M**LTDRLQLTLRALEDEKKKTDTLLYSVLPPSVANELRHK; also: expressed with selenomethionine (Met replaced by SeMet)
notes: N-terminal cloning artefact left after thrombin cleavage of the pET15b tag; The printed calculated mass of 7712.86 Da fits GSHM + 348-409 with I371M (my calculation; wild type would be about 7694.8 Da), and only the I371M construct's purification is described; One molecule is therefore used for all three experiments; also called sGCβ1 CC; rsGCβ1 CC domain; source: E. coli BL21 (DE3) pLysS, …
On to B1, for which, in data set [3], the “stoichiometry N” value was 4 and 2.

The Kd is the constant that tells how readily two partners part at equilibrium. The stoichiometry N is a count of units in the complex or per binding partner.
